# Measurements reported in the supplement of paper PMC12855868.
# B1: library; numbered along this chain (parent)
# chain: MAAAGGARLLRAASAVLGGPAGRWLHHAGSRAGSSGLLRNRGPGGSAEASRSLSVSARARSSSEDKITVHFINRDGETLTTKGKVGDSLLDVVVENNLDIDGFGACEGTLACSTCHLIFEDHIYEKLDAITDEENDMLDLAYGLTDRSRLGCQICLTKSMDNMTVRVPETVADARQSIDVGKTS
# Variants of: B1
# Experiment: scaled log2 fold change in cell abundance, elesclomol vs control (0 = silent mean, 1 = nonsense mean) (scaled log2 ratio); higher = higher viability under elesclomol (loss of FDX1 cuproptosis function)
# Details: glucose 10 mM
# Procedure: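 Deep mutational scan of full-length human FDX1: a pooled saturation-mutagenesis ORF library (every residue 2-184 mutated to all 19 amino acids plus stop, and silent codons where available) was expressed by lentivirus in FDX1-knockout ABC1 (14 days) or HEK293T (11 days) cells grown with elesclomol (ES) or DMSO control. Variant abundance came from ORF sequencing. The log2 fold change (ES vs control, mean of duplicates) was centred on the silent-variant mean (0) and scaled to the nonsense-variant mean (1). Higher values mean greater viability under ES, i.e. loss of FDX1 function in cuproptosis.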
# [1] = with ABC1 FDX1 KO, elesclomol 5 nM, 14 days
# [2] = with HEK293T FDX1 KO, elesclomol 40 nM, 11 days
# 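Note: variant abundance is its share of total variant reads in each endpoint sample, from next-generation sequencing of the integrated ORF PCR-amplified out of genomic DNA.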
Variant,scaled log2 fold change [1],scaled log2 fold change [2]
MAAAGGARLLRAASAVLGGPAGRWLHHAGSRAGSSGLLRNRGPGGSAEASRSYSVSARARSSSEDKITVHFINRDGETLTTKGKVGDSLLDVVVENNLDIDGFGACEGTLACSTCHLIFEDHIYEKLDAITDEENDMLDLAYGLTDRSRLGCQICLTKSMDNMTVRVPETVADARQSIDVGKTS,-0.194,-0.569
MAAAGGARLLRAASAVLGGPAGRWLHHAGSRAGSSGLLRNRGPGGSAEASRSLSVSARARSSSEDKITVHFINRDGETLTTKGKVGDSLLDVVVENNLDIDGFGAQEGTLACSTCHLIFEDHIYEKLDAITDEENDMLDLAYGLTDRSRLGCQICLTKSMDNMTVRVPETVADARQSIDVGKTS,0.973,1.99
MAAAGGARLLRAASAVLGGPAGRWLHHAGSRAGSSGLLRNRGPGGSAEASRSLSVSARARSSSEDKITVHFINRDGETLTTKGKVGDSLLDWVVENNLDIDGFGACEGTLACSTCHLIFEDHIYEKLDAITDEENDMLDLAYGLTDRSRLGCQICLTKSMDNMTVRVPETVADARQSIDVGKTS,0.354,-0.298
MAAAGGARLLRAASAVLGGPAGRWLHHAGSRAGSSGLLRNRGPGGSAEASRSLSVSARARSSSEDKITVHFINRDGETLTTKGKVGDSLLDVVVENNLDIDGFGACEGTLACSTCHLIFEDHIYEKLDAITDEENDMLDLAYGITDRSRLGCQICLTKSMDNMTVRVPETVADARQSIDVGKTS,0.399,-0.124
MAAAGGARLLRAASAVLGGPAGRWLHHAGSRAGSSGLLRNRGLGGSAEASRSLSVSARARSSSEDKITVHFINRDGETLTTKGKVGDSLLDVVVENNLDIDGFGACEGTLACSTCHLIFEDHIYEKLDAITDEENDMLDLAYGLTDRSRLGCQICLTKSMDNMTVRVPETVADARQSIDVGKTS,0.34,1.08
MAAAGGARLLRAASAVLGGPAGRWLHHAGSRAGRSGLLRNRGPGGSAEASRSLSVSARARSSSEDKITVHFINRDGETLTTKGKVGDSLLDVVVENNLDIDGFGACEGTLACSTCHLIFEDHIYEKLDAITDEENDMLDLAYGLTDRSRLGCQICLTKSMDNMTVRVPETVADARQSIDVGKTS,-0.433,0.662
MAAAGGARLLRAASAVLGGPAGRWLHHAGSRAGSSGLLRNRGPGGSAEASRSLSVSARARSSSEDKITVHFINRDGETLTTKGKVGDSLLDVVVENNLDIDGFGACEGTLACSTCALIFEDHIYEKLDAITDEENDMLDLAYGLTDRSRLGCQICLTKSMDNMTVRVPETVADARQSIDVGKTS,0.129,0.404
MAAAGGARLLRAASAVLGGPAGRWLHHAGSRAGSSGLLRNRGPGGSAEASRSLSVSARARSSSEDKITVHFINRDGETLTTKGKVGDSLLDVVVENNLDADGFGACEGTLACSTCHLIFEDHIYEKLDAITDEENDMLDLAYGLTDRSRLGCQICLTKSMDNMTVRVPETVADARQSIDVGKTS,0.162,-0.8
MAAAGGARLLRAASAVLGGPAGRWLHHAGSRAGSSGLLRNRGPGGSAEASRSLSVSARARSSSEDKITVHFINRDGETLTTKGKVGDSLLDVKVENNLDIDGFGACEGTLACSTCHLIFEDHIYEKLDAITDEENDMLDLAYGLTDRSRLGCQICLTKSMDNMTVRVPETVADARQSIDVGKTS,-0.498,–
